Biological target: the molecule itself
Assay: AFM volume analysis

B1: 6His–Ver (natural protein, Drosophila, UniProt Q9VTZ2 1-214, looked up)
chain: MDFNQSFEDIESQLDNFVIRKNQQSEKSTGKCGPEVHDNVPLTISQIERATQDPENENVFITDDVHPIHFCTCIIYAFVTGNGTHNESFMKFMIDDGTGSLEASITKKPFNGRVISSLYSEASSLASSEAYKSIAVSMMRLLQVSMEYIDPTRISRGHSLFLRGRPNRFRGKMGLDAFQFFIDSGRSRNMEIGFVDYLTDWQRRHKTMQNTTNK
In the case of B1, the “stoichiometry N” value is reported as 2.

From publication PMC5389638 (Nucleic Acids Research, 2016)
